Data from publication PMC4951694, “Structural and thermodynamic basis of proline-induced transmembrane complex stabilization” (Scientific Reports, 2016).

Molecular target: T1, integrin β3(G690C/A711P) TM peptide of the disulfide-linked αIIb(A963C)–β3(G690C/A711P) dimer (human, UniProt P05106 711-753, C687S | G690C | A711P, not fully specified; C690 disulfide-linked to C963 of αIIb(A963C); 2H/13C/15N or 2H/15N labelling in some samples)
T1 construct: integrin β3, human, P685-F727; add 26 for P05106; source: E. coli
T1 chain (looked up): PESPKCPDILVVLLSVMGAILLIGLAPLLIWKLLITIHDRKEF
Assay: NMR structure; disulfide-linked dimer, 0.8 mM, in 350 mM DHPC, 105 mM DMPC bicelles (q 0.3), pH 7.4, 40 °C; interhelical NOEs and RDCs
Conditions: both partners purified

B1: integrin αIIb(A963C) TM peptide of the disulfide-linked αIIb(A963C)–β3(G690C/A711P) dimer (peptide)
chain: not shown
modifications: C963 disulfide-linked to C690 of β3(G690C/A711P); 2H/13C/15N, 2H/15N or fractionally deuterated labelling in some samples
notes: integrin αIIb, human, A958-P998; add 31 for P08514; source: E. coli
binding result: binds
